In patent US20240294670A1 (University of Texas, published 2024):

Experiments:
Experiment in all cases: anti-His co-IP of rCHI3L1 from Kupffer cell lysate, MS; listed under 'proteins bound to CHI3L1'
Q5FW97_MOUSE = biological target: T1, Q5FW97_MOUSE (mouse, UniProt Q5FW97 2-434)
T1 construct: also called tr|Q5FW97|Q5FW97_MOUSE
Experimental: (§1) CHI3L1 interacts with CD44 on KCs. To further understand how CHI3L1 mediates the function of KCs to recruit platelets, the inventors set out to identify its receptor on KCs. They isolated KCs from WT mice treated with APAP for 3 h and incubated the cells with His-tagged rCHI3L1. The cell lysate was subjected to immunoprecipitation using an anti-His antibody. The “pulled down” fraction was subjected to LC/MS analyses. A partial list of proteins identified, including CHI3L1 itself, is shown in (Extended Data Table 1). Because CD44 is a cell membrane protein, the inventors decided to investigate it is a receptor for CHI3L1. They performed/immunoprecipitation experiments using liver homogenates obtained from WT and CD44^{-/-} mice after APAP treatment. […] Moreover, the inventors incubated rhCHI3L1 with human CD44 and then immunoprecipitated with an anti-CD44 antibody. The data confirmed a direct binding between CHI3L1 and CD44 (FIG. 3C). Consistent with the notion that many cell types express CD44, they detected CD44 express on various hepatic non-parenchymal cells (NPCs) except B cells and DCs (summarized in Extended Data Table 2). However, when they incubated liver NPCs with His-tagged rCHI3L1, the inventors observed that the only CD44-expressing cells that could bind to CHI3L1 were KCs (FIG. 3D).

Q3UJ34_MOUSE = biological target: T2, Q3UJ34_MOUSE (mouse, UniProt Q3UJ34 1-412)
T2 construct: also called tr|Q3UJ34|Q3UJ34_MOUSE
T2 sequence: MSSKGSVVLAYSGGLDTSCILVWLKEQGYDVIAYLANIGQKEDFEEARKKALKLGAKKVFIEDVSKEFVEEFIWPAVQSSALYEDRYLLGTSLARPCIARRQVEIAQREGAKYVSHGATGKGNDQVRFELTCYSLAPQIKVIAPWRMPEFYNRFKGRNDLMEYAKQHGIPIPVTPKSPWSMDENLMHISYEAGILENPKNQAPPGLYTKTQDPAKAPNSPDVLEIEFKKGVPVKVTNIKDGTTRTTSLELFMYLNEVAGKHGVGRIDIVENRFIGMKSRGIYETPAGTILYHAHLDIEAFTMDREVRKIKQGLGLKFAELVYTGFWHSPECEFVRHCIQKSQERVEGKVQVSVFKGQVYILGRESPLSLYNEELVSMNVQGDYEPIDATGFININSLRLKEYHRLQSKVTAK
Experimental: as §1

Q3TF14_MOUSE = biological target: T3, Q3TF14_MOUSE (mouse, UniProt Q3TF14 2-432)
T3 construct: also called tr|Q3TF14|Q3TF14_MOUSE
T3 sequence: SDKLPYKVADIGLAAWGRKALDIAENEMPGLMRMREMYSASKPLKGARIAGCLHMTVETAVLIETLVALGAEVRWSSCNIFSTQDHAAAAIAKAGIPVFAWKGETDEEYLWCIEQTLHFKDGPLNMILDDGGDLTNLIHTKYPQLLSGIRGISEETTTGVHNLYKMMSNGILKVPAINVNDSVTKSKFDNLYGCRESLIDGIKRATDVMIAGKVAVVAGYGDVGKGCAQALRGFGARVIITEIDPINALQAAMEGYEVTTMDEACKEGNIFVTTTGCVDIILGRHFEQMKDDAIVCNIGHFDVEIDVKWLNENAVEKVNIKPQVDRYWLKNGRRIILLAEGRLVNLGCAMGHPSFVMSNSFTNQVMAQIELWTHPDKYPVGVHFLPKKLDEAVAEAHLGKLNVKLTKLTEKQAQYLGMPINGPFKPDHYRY
Experimental: as §1

Q3TJ66_MOUSE = biological target: T4, Q3TJ66_MOUSE (mouse, UniProt Q3TJ66 2-364)
T4 construct: also called tr|Q3TJ66|Q3TJ66_MOUSE
T4 sequence: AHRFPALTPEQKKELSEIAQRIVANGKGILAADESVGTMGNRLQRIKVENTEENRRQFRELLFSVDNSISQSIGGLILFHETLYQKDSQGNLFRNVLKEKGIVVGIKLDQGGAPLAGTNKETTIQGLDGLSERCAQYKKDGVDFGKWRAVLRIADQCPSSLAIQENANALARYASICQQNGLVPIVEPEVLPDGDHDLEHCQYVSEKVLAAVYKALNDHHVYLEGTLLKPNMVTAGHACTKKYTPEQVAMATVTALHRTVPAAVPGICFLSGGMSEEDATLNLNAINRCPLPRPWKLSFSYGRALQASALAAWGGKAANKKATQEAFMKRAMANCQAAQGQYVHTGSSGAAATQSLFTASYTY
Experimental: as §1

Q3UQ71_MOUSE = biological target: T5, Q3UQ71_MOUSE (mouse, UniProt Q3UQ71 1-554)
T5 construct: also called tr|Q3UQ71|Q3UQ71_MOUSE
T5 sequence: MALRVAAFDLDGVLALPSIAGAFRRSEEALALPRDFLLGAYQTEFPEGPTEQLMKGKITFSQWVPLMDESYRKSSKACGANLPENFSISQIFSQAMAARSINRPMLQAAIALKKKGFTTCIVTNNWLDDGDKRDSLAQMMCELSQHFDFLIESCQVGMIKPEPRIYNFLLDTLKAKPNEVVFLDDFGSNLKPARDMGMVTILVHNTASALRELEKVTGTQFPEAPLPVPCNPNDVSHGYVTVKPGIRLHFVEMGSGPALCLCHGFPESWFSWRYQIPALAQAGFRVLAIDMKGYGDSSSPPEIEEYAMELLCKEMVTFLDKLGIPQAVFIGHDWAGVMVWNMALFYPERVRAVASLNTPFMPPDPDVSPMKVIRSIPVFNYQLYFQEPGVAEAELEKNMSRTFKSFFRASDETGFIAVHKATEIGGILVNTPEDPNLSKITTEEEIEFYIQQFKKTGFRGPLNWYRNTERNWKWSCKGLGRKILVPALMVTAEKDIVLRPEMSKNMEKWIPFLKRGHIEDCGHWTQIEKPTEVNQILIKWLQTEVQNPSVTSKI
Experimental: as §1

Measured: binding result

T1 sequence (Q5FW97 entry or part of it limits assumed): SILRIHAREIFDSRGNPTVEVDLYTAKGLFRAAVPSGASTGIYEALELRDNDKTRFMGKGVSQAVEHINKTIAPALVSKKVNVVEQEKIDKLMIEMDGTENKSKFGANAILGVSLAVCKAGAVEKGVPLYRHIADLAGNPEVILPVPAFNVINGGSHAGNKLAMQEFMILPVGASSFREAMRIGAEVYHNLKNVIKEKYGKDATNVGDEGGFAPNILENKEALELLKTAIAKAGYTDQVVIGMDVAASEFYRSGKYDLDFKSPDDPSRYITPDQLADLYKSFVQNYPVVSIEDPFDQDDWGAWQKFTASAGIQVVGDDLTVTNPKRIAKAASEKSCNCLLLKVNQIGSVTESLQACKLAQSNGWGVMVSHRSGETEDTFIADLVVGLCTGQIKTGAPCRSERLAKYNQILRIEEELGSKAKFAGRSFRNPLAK

B1: recombinant mouse CHI3L1 (ligand)
chain: not shown
notes: His-tagged; also called mCHI3L1; mChi3l1
binds: all assays above
